Reference: the supplement of paper PMC12667976
± gives the standard error.

B1: library; numbered along this chain (parent)
chain: MATDAALRRLLRLHRTEIAVAVDSAFPLLHALADHDVVPEDKFQETLHLKEKEGCPQAFHALLSWLLTQDSTAILDFWRVLFKDYNLERYGRLQPILDSFPKDVDLSQPRKGRKPPAVPKALVPPPRLPTKRKASEEARAAAPAALTPRGTASPGSQLKAKPPKKPESSAEQQRLPLGNGIQTMSASVQRAVAMSSGDVPGARGAVEGILIQQVFESGGSKKCIQVGGEFYTPSKFEDSGSGKNKARSSSGPKPLVRAKGAQGAAPGGGEARLGQQGSVPAPLALPSDPQLHQKNEDECAVCRDGGELICCDGCPRAFHLACLSPPLREIPSGTWRCSSCLQATVQEVQPRAEEPRPQEPPVETPLPPGLRSAGEEVRGPPGEPLAGMDTTLVYKHLPAPPSAAPLPGLDSSALHPLLCVGPEGQQNLAPGARCGVCGDGTDVLRCTHCAAAFHWRCHFPAGTSRPGTGLRCRSCSGDVTPAPVEGVLAPSPARLAPGPAKDDTASHEPALHRDDLESLLSEHTFDGILQWAIQSMARPAAPFPS

Variants of: B1
Experiment: AIRE transcriptional activation functional score (insulin promoter-GFP; nonsense median 0, synonymous median 1) (normalised score); higher = higher AIRE activity (more reporter activation)
Settings: with insulin promoter-GFP reporter in HEK293
Method in brief: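 Using Bxb1 recombinase, codon-optimized NNN-codon libraries for three AIRE regions were inserted into Flp-In T-REx HEK293 landing-pad cells with an insulin core promoter-GFP reporter. After integrants (mCherry+, BFP−) were sorted at day 7 and expanded for 7 days, the top 10% GFP and unselected integrant populations underwent tile-sequencing. Functional scores are wild-type-subtracted enrichments of variants in select over non-select samples. A cutoff of 10 counts per million in non-select applied, and values were rescaled (nonsense median 0, synonymous median 1) and averaged over biological replicates.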

Variant | AIRE transcriptional activation functional score
T3R | 1.18 ± 0.6
P407K | 0.865 ± 0.052
P407N | 1.39 ± 0.061
F77V | 0.192 ± 0.17
F230M | 0.801 ± 0.15
F230C | 0.611 ± 0.09
E376H | 1.36 ± 0.072
K164A | 1.17 ± 0.25
K164Y | 0.624 ± 0.74
P422N | 1.18 ± 0.13
V377N | 1.2 ± 0.1
K159R | 1.48 ± 0.41
K42V | 0.822 ± 0.85
F459D | 0.929 ± 0.076
R9P | 0.671 ± 0.54
P398W | 1.64 ± 0.049
E237S | 0.791 ± 0.32
P360C | 1.08 ± 0.13
E353Y | 1.42 ± 0.078
G269D | 0.649 ± 0.084
Q212D | -0.139 ± 0.13
Q212I | -0.568 ± 0.044
P233L | 0.385 ± 0.12
P233D | 0.675 ± 0.056

Variant | AIRE transcriptional activation functional score
S464G | 1.27 ± 0.2
S464A | 0.955 ± 0.39
A317Y | 0.503 ± 0.2
K131S | 0.0229 ± 0.23
A134K | -3.51 ± 0.36
P148T | 1.29 ± 0.8
S196D | 0.944 ± 0.13
G387F | 1.52 ± 0.076
F236W | 1.44 ± 0.082
L428D | 0.545 ± 0.29
A160K | -0.392 ± 0.28
P126G | 1.42 ± 0.35
V118F | 1.01 ± 0.24
L406V | 0.908 ± 0.14
G263V | 1.25 ± 0.15
G263E | 1.42 ± 0.15
G305C | 1.06 ± 0.18
A31C | -0.0426 ± 0.23
S278P | 1.12 ± 0.29
H14C | -0.236 ± 0.35
A404T | 1.04 ± 0.15
A404H | 1.66 ± 0.044
P416Y | 0.419 ± 0.13
P162E | 0.27 ± 0.49

Variant | AIRE transcriptional activation functional score
T344L | 0.939 ± 0.34
T344Q | 1.12 ± 0.21
T344R | 1.08 ± 0.16
A489P | 1.01 ± 0.25
A489S | 0.687 ± 0.46
Q530K | 0.392 ± 0.086
P119R | 0.495 ± 0.34
A271D | 1.22 ± 0.21
A271K | 1.1 ± 0.14
R79C | 0.278 ± 0.2
D526I | 0.298 ± 0.072
L63H | -0.128 ± 0.63
C475G | 0.304 ± 0.28
Q108D | 2.03 ± 0.31
Q182K | 1.73 ± 0.34
P401D | 1.07 ± 0.31
G379L | 1.41 ± 0.33
G374L | 1.29 ± 0.14
C337M | 0.956 ± 0.099
C337F | 0.845 ± 0.028
P355F | 1 ± 0.11
F59H | 0.308 ± 0.5
P350G | 1.14 ± 0.19
G150D | -0.34 ± 0.4

Variant | AIRE transcriptional activation functional score
S107P | 0.096 ± 0.85
A500S | 1.17 ± 0.22
P254Q | 1.2 ± 0.15
F453N | 0.22 ± 0.092
T147G | 0.811 ± 0.49
S99A | -0.293 ± 0.049
P200S | 1.06 ± 0.18
R356D | 1.05 ± 0.19
A21Y | 0.166 ± 0.29
V443R | 0.0498 ± 0.11
T151K | 0.845 ± 0.2
L444F | 0.489 ± 0.068
H454D | 0.289 ± 0.075
H454A | -0.16 ± 0.2
Q349N | 0.61 ± 0.22
Q349D | 0.985 ± 0.1
Q349H | 0.951 ± 0.05
V214C | 1.01 ± 0.054
P361S | 1.21 ± 0.15
P361E | 0.976 ± 0.18
T447G | 1.03 ± 0.11
L177T | 0.252 ± 0.31
H448R | 0.695 ± 0.34
S491R | 0.586 ± 0.16

Variant | AIRE transcriptional activation functional score
P326H | 0.781 ± 0.18
P326F | 1.72 ± 0.14
Q173L | 1.52 ± 0.42
Q173E | 0.663 ± 0.18
Q173W | 1.54 ± 0.13
G431S | 0.927 ± 0.24
A452S | 1.04 ± 0.19
V420S | 1.07 ± 0.48
V420H | 0.593 ± 0.17
G462E | 0.465 ± 0.043
S372Y | 1.25 ± 0.4
Q290W | 1.1 ± 0.043
P125H | 1.27 ± 0.22
P125S | 1.04 ± 0.39
L417N | 1.05 ± 0.17
L417P | 0.784 ± 0.21
V362K | 1.11 ± 0.1
V362D | 1.3 ± 0.19
L291Q | 0.902 ± 0.21
G438E | 0.922 ± 0.077
L519S | 0.255 ± 0.14
L366V | 0.996 ± 0.18
I209E | 0.5 ± 0.23
L529W | 1.39 ± 0.097

Variant | AIRE transcriptional activation functional score
A493F | 1.17 ± 0.11
D34H | 1.62 ± 0.13
D34I | -0.247 ± 0.39
L29Q | 0.317 ± 0.23
H458Y | 0.864 ± 0.076
I96H | 1.08 ± 0.16
P367W | 1.97 ± 0.069
L285Q | 1.22 ± 0.074
V20S | -0.474 ± 0.42
A482F | -0.132 ± 0.24
R473W | 0.97 ± 0.13
P497S | 0.852 ± 0.26
E423M | 0.551 ± 0.18
E229C | 0.0314 ± 0.21
D23M | 0.267 ± 0.36
L28H | -2.61 ± 0.94
L28W | -2.53 ± 0.92
E17S | -0.0199 ± 0.23
I309K | 0.472 ± 0.41
E171D | 0.998 ± 0.39
E171I | 1.63 ± 0.24
L146N | 0.353 ± 0.38
L10A | -0.0675 ± 0.18
P176M | 2.1 ± 0.086

Variant | AIRE transcriptional activation functional score
P176V | 1.54 ± 0.26
D514R | 0.191 ± 0.14
D514M | 0.515 ± 0.075
R132H | 0.458 ± 0.6
E136F | 0.605 ± 0.16
E136M | 0.441 ± 0.041
K222C | -0.312 ± 0.16
E307G | 1.18 ± 0.31
A300E | 0.84 ± 0.4
A300I | 1.11 ± 0.34
H319N | 1.26 ± 0.094
A261Y | 1.12 ± 0.31
A261E | 1.11 ± 0.088
E51C | -0.0446 ± 0.41
E51H | 0.0447 ± 0.07
P124G | 1.27 ± 0.41
R247M | 1.42 ± 0.11
D103E | 1.66 ± 0.41
K235R | 1.19 ± 0.28
W78L | 0.134 ± 0.35
W78F | 0.409 ± 0.39
A505M | 0.663 ± 0.15
G408H | 1.31 ± 0.18
